Patent US12269859B2, “Synthetic immune receptors and methods of use thereof” (Angeles Therapeutics, Inc., priority 2016, dated 2025)

Test system: target antigen-expressing cell line
Test: Jurkat NFAT-GFP assay, coculture with target cell lines expressing the respective target antigen (summary Table 10A)
Type: cell-based, human
Design: key: The signs +/−, +, 2+ etc. after the name of the cell lines indicate the relative degree of positivity on the Jurkat-NFAT-GFP assay as measured by the % GFP positive cells; +: relative degree of positivity on the Jurkat-NFAT-GFP assay as measured by the % GFP positive cells; 2+: relative degree of positivity on the Jurkat-NFAT-GFP assay as measured by the % GFP positive cells
In short: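 Jurkat cells carrying an NFAT-site IL-2 promoter driving GFP were lentivirally transduced with SIRs, puromycin-selected, then cocultured with antigen-expressing target cells at E:T about 1:2 for about 4–18 hours. GFP induction was read by flow cytometry as % GFP-positive cells versus parental Jurkat-NFAT-GFP.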

B1: 111915-U05 (protein)
chain: MALPVTALLLPLALLLHAARPDEFEVQLVESGGGLVQAGGSLRLSCVASGISSSKRNMGWYRQAPGKQRESVATISSGGNKDYTDAVKDRFTISRDTTKNTVYLQMNSLKPEDTAVYYCKIEAGTGWATRRGYTYWGQGTLVTVSSLEGKPIPNPLLGLDSTGSGEDLKNVFPPEVAVFEPSEAEISHTQKATLVCLATGFYPDHVELSWWVNGKEVHSGVCTDPQPLKEQPALNDSRYCLSSRLRVSATFWQNPRNHFRCQVQFYGLSENDEWTQDRAKPVTQIVSAEAWGRADCGFTSESYQQGVLSATILYEILLGKATLYAVLVSALVLMAMVKRKDSRGRAKRSGSGATNFSLLKQAGDVEENPGPTSMDWIWRILFLVGAATGAHSFEVQLVESGGGSVQPGGSLTLSCGTSGRTFNVMGWFRQAPGKEREFVAAVRWSSTGIYYTQYADSVKSRFTISRDNAKNTVYLEMNSLKPEDTAVYYCAADTYNSNPARWDGYDFRGQGTQVTVSSTREQKLISEEDGSGIQNPDPAVYQLRDSKSSDKSVCLFTDFDSQTNVSQSKDSDVYITDKCVLDMRSMDFKSNSAVAWSNKSDFACANAFNNSIIPEDTFFPSPESSCDVKLVEKSFETDTNLNFQNLSVIGFRILLLKVAGFNLLMTLRLWSSRAKRSGSGVKQTLNFDLLKLAGDVESNPGPSRGHMTEYKPTVRLATRDDVPRAVRTLAAAFADYPATRHTVDPDRHIERVTELQELFLTRVGLDIGKVWVADDGAAVAVWTTPESVEAGAVFAEIGPRMAELSGSRLAAQQQMEGLLAPHRPKEPAWFLATVGVSPDHQGKGLGSAVVLPGVEAAERAGVPAFLETSAPRNLPFYERLGFTVTADVEVPEGPRTWCMTRKPGA
modifications: Polynucleotide encoding a Synthetic Immune Receptor (SIR)
- NFAT-GFP ASSAY Positive Cell lines (coculture with Bv173 cells): (+/−), THP1 (+/−),
- NFAT-GFP ASSAY Positive Cell lines (coculture with KG1 cells): KG1 (2+)
- NFAT-GFP ASSAY Positive Cell lines (coculture with MOLM13 cells): MOLM13 (+/−), Bv173
- NFAT-GFP ASSAY Positive Cell lines (coculture with THP1 cells): (+/−), THP1 (+/−),

B2: 111815-E04 (protein)
chain: MALPVTALLLPLALLLHAARPDEFEVQLVESGGGLVQAGGSLRLSCVASGISSSKRNMGWYRQAPGKQRESVATISSGGNKDYTDAVKDRFTISRDTTKNTVYLQMNSLKPEDTAVYYCKIEAGTGWATRRGYTYWGQGTLVTVSSLEGKPIPNPLLGLDSTGSGEDLKNVFPPEVAVFEPSEAEISHTQKATLVCLATGFYPDHVELSWWVNGKEVHSGVCTDPQPLKEQPALNDSRYCLSSRLRVSATFWQNPRNHFRCQVQFYGLSENDEWTQDRAKPVTQIVSAEAWGRADCGFTSESYQQGVLSATILYEILLGKATLYAVLVSALVLMAMVKRKDSRGRAKRSGSGATNFSLLKQAGDVEENPGPTSMDWIWRILFLVGAATGAHSFEVQLVESGGGSVQAGGSLRLSCTTSGRALNMYVMGWFRQAPGNEREFVAATSSSGGSTSYPDSVKGRFTISRDNAKNTVYLQMNSLKPEDTAAYRCAASPYVSTPTMNILEEYRYWGLGTQVTVSSTREQKLISEEDGSGIQNPDPAVYQLRDSKSSDKSVCLFTDFDSQTNVSQSKDSDVYITDKCVLDMRSMDFKSNSAVAWSNKSDFACANAFNNSIIPEDTFFPSPESSCDVKLVEKSFETDTNLNFQNLSVIGFRILLLKVAGFNLLMTLRLWSSRAKRSGSGVKQTLNFDLLKLAGDVESNPGPSRGHMTEYKPTVRLATRDDVPRAVRTLAAAFADYPATRHTVDPDRHIERVTELQELFLTRVGLDIGKVWVADDGAAVAVWTTPESVEAGAVFAEIGPRMAELSGSRLAAQQQMEGLLAPHRPKEPAWFLATVGVSPDHQGKGLGSAVVLPGVEAAERAGVPAFLETSAPRNLPFYERLGFTVTADVEVPEGPRTWCMTRKPGA
modifications: Polynucleotide encoding a Synthetic Immune Receptor (SIR)
- NFAT-GFP ASSAY Positive Cell lines (coculture with Bv173 cells): (2+)
- NFAT-GFP ASSAY Positive Cell lines (coculture with U266 cells): U266 (2+), Bv173

B3: 100615-C06 (protein)
chain: MALPVTALLLPLALLLHAARPDIQMTQSPSSLSASVGDRVTITCRASQGIRNNLAWYQQKPGKAPKRLIYAASNLQSGVPSRFTGSGSGTEFTLIVSSLQPEDFATYYCLQHHSYPLTSGGGTKVELEGKPIPNPLLGLDSTGSGEDLKNVFPPEVAVFEPSKAEIAHTQKATLVCLATGFYPDHVELSWWVNGKEVHSGVCTDPQPLKEQPALNDSRYCLSSRLRVSATFWQNPRNHFRCQVQFYGLSENDEWTQDRAKPVTQIVSAEAWGRADCGITSASYHQGVLSATILYEILLGKATLYAVLVSALVLMAMVKRKDSRGRAKRSGSGATNFSLLKQAGDVEENPGPTSMDWIWRILFLVGAATGAHSFEEVQVLESGGGLVQPGGSLRLSCAASGFTFSSYAMSWVRQAPGKGLEWVSAISGSGGSTNYADSVKGRFTISRDNSKNTLYLQMNSLRAEDTAVYYCAGSSGWSEYWGQGTLVTVSSTREQKLISEEDGSGIQNPDPAVYQLRDSKSSDKSVCLFTDFDSQTNVSQSKDSDVYITDKCVLDMRSMDFKSNSAVAWSNKSDFACANAFNNSIIPEDTFFPSSDVPCDVKLVEKSFETDTNLNFQNLSVIGFRILLLKVAGFNLLMTLRLWSSRAKRSGSGVKQTLNFDLLKLAGDVESNPGPSRGHMTEYKPTVRLATRDDVPRAVRTLAAAFADYPATRHTVDPDRHIERVTELQELFLTRVGLDIGKVWVADDGAAVAVWTTPESVEAGAVFAEIGPRMAELSGSRLAAQQQMEGLLAPHRPKEPAWFLATVGVSPDHQGKGLGSAVVLPGVEAAERAGVPAFLETSAPRNLPFYERLGFTVTADVEVPEGPRTWCMTRKPGA
modifications: Synthetic Immune Receptor (SIR)
- NFAT-GFP ASSAY Positive Cell lines (coculture with HeLa (Hela) cells): (+/−)
- NFAT-GFP ASSAY Positive Cell lines (coculture with LoVo cells): LoVo (+/−), HeLa

B4: 111516-M03 (protein)
chain: MALPVTALLLPLALLLHAARPLEGKPIPNPLLGLDSTGSGEDLKNVFPPEVAVFEPSKAEIAHTQKATLVCLATGFYPDHVELSWWVNGKEVHSGVCTDPQPLKEQPALNDSRYCLSSRLRVSATFWQNPRNHFRCQVQFYGLSENDEWTQDRAKPVTQIVSAEAWGRADCGITSASYHQGVLSATILYEILLGKATLYAVLVSALVLMAMVKRKDSRGRAKRSGSGATNFSLLKQAGDVEENPGPTSMALPVTALLLPLALLLHAARPDIVLTQSPLSLAVSLGQPAIISCKASQSVSFAGTSLMHWYHQKPGQQPRLLIYRASNLEAGVPDRFSGSGSKTDFTLTISPVEAEDAATYYCQQSREYPYTFGGGTKLEIKRGGGGSGGGGSGGGGSQVQLVQSGAEVVKPGASVKISCKASGYTFTGYFMNWVKQSPGQSLEWIGRIHPYDGDTFYNQKFQGKATLTVDKSSNTAHMELLSLTSEDFAVYYCTRYDGSRAMDYWGQGTTVTVSSTREQKLISEEDGSGIQNPDPAVYQLRDSKSSDKSVCLFTDFDSQTNVSQSKDSDVYITDKCVLDMRSMDFKSNSAVAWSNKSDFACANAFNNSIIPEDTFFPSSDVPCDVKLVEKSFETDTNLNFQNLSVIGFRILLLKVAGFNLLMTLRLWSSRAKRSGSGVKQTLNFDLLKLAGDVESNPGPSRGHMTEYKPTVRLATRDDVPRAVRTLAAAFADYPATRHTVDPDRHIERVTELQELFLTRVGLDIGKVWVADDGAAVAVWTTPESVEAGAVFAEIGPRMAELSGSRLAAQQQMEGLLAPHRPKEPAWFLATVGVSPDHQGKGLGSAVVLPGVEAAERAGVPAFLETSAPRNLPFYERLGFTVTADVEVPEGPRTWCMTRKPGA
modifications: Polynucleotide encoding a Synthetic Immune Receptor (SIR)
- NFAT-GFP ASSAY Positive Cell lines (coculture with LoVo cells): (+/−)
- NFAT-GFP ASSAY Positive Cell lines (coculture with SKOV3 cells): SKOV3 (+), LoVo

B5: 101216-Y07 (protein)
chain: MALPVTALLLPLALLLHAARPDIQMTQSPSSLSASVGDRVTITCRASQGISSWLAWYQQKPEKAPKSLIYAASSLQSGVPSRFSGSGSGTDFTLTISSLQPEDFATYYCQQYNSYPPTFGGGTKVEIKLEGKPIPNPLLGLDSTGSGEDLKNVFPPEVAVFEPSKAEIAHTQKATLVCLATGFYPDHVELSWWVNGKEVHSGVCTDPQPLKEQPALNDSRYCLSSRLRVSATFWQNPRNHFRCQVQFYGLSENDEWTQDRAKPVTQIVSAEAWGRADCGITSASYHQGVLSATILYEILLGKATLYAVLVSALVLMAMVKRKDSRGRAKRSGSGATNFSLLKQAGDVEENPGPTSMDWIWRILFLVGAATGAHSFEEVQLVESGGGLVQPGESLRLSCVASGFTFSRYKMNWVRQAPGKGLEWVSYISRSGRDIYYADSVKGRFTISRDNAKNSLYLQMNSLRDEDTAVYYCAGTVTTYYYFGMDVWGHGTTVTVSSTREQKLISEEDGSGIQNPDPAVYQLRDSKSSDKSVCLFTDFDSQTNVSQSKDSDVYITDKCVLDMRSMDFKSNSAVAWSNKSDFACANAFNNSIIPEDTFFPSSDVPCDVKLVEKSFETDTNLNFQNLSVIGFRILLLKVAGFNLLMTLRLWSSRAKRSGSGVKQTLNFDLLKLAGDVESNPGPSRGHMTEYKPTVRLATRDDVPRAVRTLAAAFADYPATRHTVDPDRHIERVTELQELFLTRVGLDIGKVWVADDGAAVAVWTTPESVEAGAVFAEIGPRMAELSGSRLAAQQQMEGLLAPHRPKEPAWFLATVGVSPDHQGKGLGSAVVLPGVEAAERAGVPAFLETSAPRNLPFYERLGFTVTADVEVPEGPRTWCMTRKPGA
modifications: Synthetic Immune Receptor (SIR)
- NFAT-GFP ASSAY Positive Cell lines (coculture with H460 cells): H460 (+/−), HCT116
- NFAT-GFP ASSAY Positive Cell lines (coculture with HCT116 cells): (+/−)

B6: 021517-I01 (protein)
chain: MALPVTALLLPLALLLHAARPLEGKPIPNPLLGLDSTGSGEDLKNVFPPEVAVFEPSKAEIAHTQKATLVCLATGFYPDHVELSWWVNGKEVHSGVCTDPQPLKEQPALNDSRYCLSSRLRVSATFWQNPRNHFRCQVQFYGLSENDEWTQDRAKPVTQIVSAEAWGRADCGITSASYHQGVLSATILYEILLGKATLYAVLVSALVLMAMVKRKDSRGRAKRSGSGATNFSLLKQAGDVEENPGPTSMALPVTALLLPLALLLHAARPQSVVTQPPSVSGAPGQRVTISCTGSSSNIGAGYDVHWYQQLPGTAPKLLIYGNSNRPSGVPDRFSGSKSGTSASLAITGLQAEDEADYYCQSYDSSLSGSYVFGTGTKLTVLGGGGGSGGGGSGGGGSEVQLVETGGNLVQPGASLRLSCAASGFSFSGTAMHWVRQAPGKGLEWVSTISSTGRSTYYRDSVKGRFTISRDNSKNTLYLQMNSLRGEDTAVYYCARVSFDYWGQGTLVTVSSTREQKLISEEDGSGIQNPDPAVYQLRDSKSSDKSVCLFTDFDSQTNVSQSKDSDVYITDKCVLDMRSMDFKSNSAVAWSNKSDFACANAFNNSIIPEDTFFPSSDVPCDVKLVEKSFETDTNLNFQNLSVIGFRILLLKVAGFNLLMTLRLWSSRAKRSGSGVKQTLNFDLLKLAGDVESNPGPSRGHMTEYKPTVRLATRDDVPRAVRTLAAAFADYPATRHTVDPDRHIERVTELQELFLTRVGLDIGKVWVADDGAAVAVWTTPESVEAGAVFAEIGPRMAELSGSRLAAQQQMEGLLAPHRPKEPAWFLATVGVSPDHQGKGLGSAVVLPGVEAAERAGVPAFLETSAPRNLPFYERLGFTVTADVEVPEGPRTWCMTRKPGA
- NFAT-GFP ASSAY Positive Cell lines (coculture with L363 cells): L363 (+/−)
